Common to all, as to assay: EMSA
Common to all, as to conditions: EMSA: 10 mM NaCl, 0.1 mM DTT, 0.1 mM EDTA, 10 mM Tris pH 7.4, 25 C 30 min (22-42 C series in Fig 5C), 20 ng Cy5 probe, poly(dI:dC); footprinting: 400 ng FAM …

Data set [1] addresses T1, RpoE (sigma E) (Vibrio alginolyticus (EPGS)) (UniProt A0A0H0YA85).
T1 sequence: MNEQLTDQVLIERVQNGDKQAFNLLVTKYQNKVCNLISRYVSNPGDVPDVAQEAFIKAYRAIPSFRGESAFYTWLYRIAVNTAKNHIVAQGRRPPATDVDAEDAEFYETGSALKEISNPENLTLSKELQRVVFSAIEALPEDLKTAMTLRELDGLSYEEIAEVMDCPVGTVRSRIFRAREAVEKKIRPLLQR

Data set [2] has as its system T2, AphA (Vibrio alginolyticus (EPGS)), ORF:ebbe691c.
T2 sequence: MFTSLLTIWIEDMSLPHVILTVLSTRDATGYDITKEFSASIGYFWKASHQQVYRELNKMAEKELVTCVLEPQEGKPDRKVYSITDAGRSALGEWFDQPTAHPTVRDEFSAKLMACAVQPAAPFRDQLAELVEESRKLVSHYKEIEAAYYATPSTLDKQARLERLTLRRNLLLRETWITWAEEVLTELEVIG

Data set [3] has as its system RpoE (sigma E) (Vibrio alginolyticus (EPGS)).

As a reminder, the Kd is the free concentration of one partner at which half of the binding sites on the other are occupied at equilibrium, for simple one-to-one binding. Low readings indicate tighter binding, high ones weaker binding. For the substance “AGTCGCACGCAAACGATCACCTAATCTTACGGCGTGTAGTGTATCACCACGTTCATTGGGTTGAAAGTCGCATCCTGTTGCCAAAAAATCTTGGAAGAAGGTCTTAGTTTTATAAAGTTCATAGCTAAATTTATCAATAATAATGACATTACTGTATATAAATTGTTCTACAGATGTTGACCTTGTGCATATGCACCATTACACTCATCACTGCTTTAAGCAACTATTAAAATAATCAATTAGGGGGTTACCCCCAATATCAACTCAAATGGCAAGGAAAATGGAT (double strand) [PluxR]”, in data set [1], the Kd came to 83 nM and the binding entry is reported as “binds”. In addition, the binding result in data set [2] was “binds”. PluxR: the Kd in data set [3] was 83 nM. PrpoH had a dissociation constant Kd in data set [3] of 75 nM. For “AAGATGCTCGCTTGTCAAACTTAGACTAAAGTCAGGCAGCGGTGGTCATTTGGGTACAGACATCACACTGTGAAAAAACAATGACAAAAAACTTGAGAAACCATGGAACTTTCTCATTCACGTTAGGGTCACAATAGTGCTCAAGTAAGCAGTGGTGTCAATACTACGTTTTGCATAATTAGTACCCATATCTGAGAAGAGTAGGGGCATAACAAATAGGAGTATCCGCTCGAATG (double strand) [PrpoE]”, in data set [1], the Kd amounted to 76 nM and the binding result is “binds”. PrpoE registered a Kd in data set [3] of 76 nM.

For the origin of these results see publication PMC4890791.
